Reference: patent US20230374149A1 (SHANGHAI HANSOH BIOMEDICAL, published 2023)

Target: T1, His-tagged human TROP-2 (TROP-2-His), SinoBiologics 10428-H08H (human, UniProt P09758 27-274)
T1 construct: Bought protein; also called TROP-2 His protein; human TROP-2 His antigen; not shown: His tag
T1 sequence: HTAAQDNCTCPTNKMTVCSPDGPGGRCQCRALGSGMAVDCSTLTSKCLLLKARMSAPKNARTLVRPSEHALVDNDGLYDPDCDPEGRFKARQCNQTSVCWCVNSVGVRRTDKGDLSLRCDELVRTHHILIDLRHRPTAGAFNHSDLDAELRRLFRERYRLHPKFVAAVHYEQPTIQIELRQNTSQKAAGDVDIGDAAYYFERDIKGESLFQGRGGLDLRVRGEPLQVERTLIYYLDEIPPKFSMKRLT
Experiment: indirect ELISA, coated TROP-2 His

- EC50: 0.56 nM
B1: murine monoclonal antibody M1 (antibody, V domains shown)
VH: QVQLQQPGAELVRPGASVKLSCRASGYTFTNYWMNWVKQRPEQGLEWIGRIDPNDSETHYNQKFKDRAILTVDKASNTAYMQLSGLTSEDSAVHYCARSGFGSTYWFFDVWGAGTTVTVSS
VL: DIVMTQSHKFMSTSVGDRVSITCKASQDVSTAVAWYQQKPGQSPKLLIYSASYRYTGVPDRFAGSGYGTDFTFTISSVQTEDLTVYHCQQHYSTPLTFGPGTRLELK
notes: It is called a murine antibody, but the ELISA used a goat-anti-human secondary antibody
